Data published in article PMC3734082.

Target: clathrin triskelia (clathrin heavy chain, CHC) purified from rat liver (UniProt P11442)
Assay: GST pull-down, CHC
Conditions: sites S558

binding against the reference (reference: wild type treated with Aurora A) | binding against the reference (reference: wild-type CID treated with Aurora A) | Substance
weaker |  | TACC3 (from UniProt Q9Y6A5) S558A treated with Aurora A
 | weaker | TACC3 clathrin interaction domain (CID), 522-577 (from UniProt Q9Y6A5) S558A CID treated with Aurora A
